# Source: PMC9133088
# Experiments:
# [1] = lysosomal fractionation, glucose starvation; conditions: glycan lost; control: control siRNA
# [2] = immunoprecipitation and phospho-S720 immunoblot; conditions: glycan lost
# [3] = RagD GTP hydrolysis, GTP-agarose pulldown, glucose-starved cells; conditions: glycan lost; control: overexpressed WT LARS1
# [4] = lysosomal fractionation, leucine added without glucose; conditions: glycan lost; control: overexpressed WT LARS1
# [5] = lysosomal fractionation, knock-in cells, glucose starvation; conditions: glycan lost; control: WT SW620 cells
# [6] = LARS1 immunoprecipitation, immunoblot, knock-in cells; conditions: glycan lost; control: WT SW620 cells, glucose starvation
# [7] = near-UV circular dichroism; conditions: glycan lost; control: WT LARS1, same OGT1 condition
# [8] = in vitro GTPase assay, GTP-agarose pulldown; conditions: glycan lost; control: unmodified WT LARS1 with ATP and leucine
# [9] = control: control siRNA, glucose starvation
substance,measurement,setting,value
leucyl-tRNA synthetase 1 (LARS1): GFPT1 siRNA,localisation_or_trafficking,[1],increases
same,other: S720 phosphorylation by ULK1,[2]; [9],decreases
leucyl-tRNA synthetase 1 (LARS1): OGT1 siRNA,other: S720 phosphorylation by ULK1,[2]; [9],decreases
leucyl-tRNA synthetase 1 (LARS1): S1042A,enzymatic_activity,[3],increases
same,localisation_or_trafficking,[4],increases
same,other: S720 phosphorylation by ULK1,"[2]; control: overexpressed WT LARS1, glucose starvation",abolishes
leucyl-tRNA synthetase 1 (LARS1): S1042A knock-in,localisation_or_trafficking,[5],increases
same,other: S720 phosphorylation by ULK1,[6],decreases
leucyl-tRNA synthetase 1 (LARS1): S1042A with OGT1,structure_or_conformation,[7],changes
leucyl-tRNA synthetase 1 (LARS1): S1042A without OGT1,structure_or_conformation,[7],no change
leucyl-tRNA synthetase 1 (LARS1): S1042A ± OGT1,enzymatic_activity,[8],no change
